The values that follow come from paper PMC2643122 (Molecular Microbiology, 2008).

This data set deals with the molecule itself. The experiment in a line: SEC. For orientation: Size exclusion chromatography separates by hydrodynamic size, large species first.

B1: recombinant full-length Candida albicans Ssa2 protein (natural protein)
chain: not shown
Turning to B1, the binding result was “binds”.
